Measurements reported in publication PMC9482650, “Quantitative fragmentomics allow affinity mapping of interactomes” (Nature Communications, 2022).

T1: LRRC7, Q96NW7
T1 sequence (Q96NW7 1440-1537, limits assumed, looked up): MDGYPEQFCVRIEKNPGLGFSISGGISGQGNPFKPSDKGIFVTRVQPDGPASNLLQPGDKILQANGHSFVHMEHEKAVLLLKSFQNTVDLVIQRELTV

T2: SNTG2, Q9NY99
T2 sequence (Q9NY99 68-166, limits assumed, looked up): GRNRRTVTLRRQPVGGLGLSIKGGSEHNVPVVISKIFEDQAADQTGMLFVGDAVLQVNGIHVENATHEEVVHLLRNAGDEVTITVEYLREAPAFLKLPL

T3: SYNJ2BP, P57105
T3 sequence (P57105 8-110, limits assumed, looked up): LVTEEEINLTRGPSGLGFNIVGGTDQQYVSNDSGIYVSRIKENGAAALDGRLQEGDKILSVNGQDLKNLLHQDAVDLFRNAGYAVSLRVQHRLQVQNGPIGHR

T4: PARD3B_1, Q8TEW8
T4 sequence (Q8TEW8 196-299, limits assumed, looked up): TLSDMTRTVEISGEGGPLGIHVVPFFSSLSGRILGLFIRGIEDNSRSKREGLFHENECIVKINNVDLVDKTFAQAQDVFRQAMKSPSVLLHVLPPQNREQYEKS

T5: DLG3_3, Q92796
T5 sequence (Q92796 374-475, limits assumed, looked up): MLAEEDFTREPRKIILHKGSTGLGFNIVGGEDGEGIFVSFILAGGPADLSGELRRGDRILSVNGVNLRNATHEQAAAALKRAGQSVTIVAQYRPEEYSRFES

T6: LIN7B, Q9HAP6
T6 sequence (Q9HAP6 88-185, limits assumed, looked up): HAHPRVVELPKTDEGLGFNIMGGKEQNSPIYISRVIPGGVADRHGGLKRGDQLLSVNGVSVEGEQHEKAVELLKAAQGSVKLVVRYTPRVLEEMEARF

T7: RADIL, Q96JH8
T7 sequence (Q96JH8 971-1071, limits assumed, looked up): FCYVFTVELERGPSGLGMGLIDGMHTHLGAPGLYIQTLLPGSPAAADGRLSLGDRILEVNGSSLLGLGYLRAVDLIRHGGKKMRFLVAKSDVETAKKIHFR

T8: MPDZ_10, O75970
T8 sequence (O75970 1624-1722, limits assumed, looked up): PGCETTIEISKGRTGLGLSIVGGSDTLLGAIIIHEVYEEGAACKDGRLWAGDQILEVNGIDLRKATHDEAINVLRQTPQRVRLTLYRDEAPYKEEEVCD

T9: APBA3_1, O96018
T9 sequence (O96018 389-490, limits assumed, looked up): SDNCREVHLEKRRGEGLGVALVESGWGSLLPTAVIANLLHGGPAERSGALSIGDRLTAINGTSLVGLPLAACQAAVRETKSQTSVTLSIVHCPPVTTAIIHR

T10: MPP6, Q9NZW5
T10 sequence (Q9NZW5 125-219, limits assumed, looked up): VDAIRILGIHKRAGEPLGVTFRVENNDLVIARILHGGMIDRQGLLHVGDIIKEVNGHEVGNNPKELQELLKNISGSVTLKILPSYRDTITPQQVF


What was measured:
Test in all cases: holdup assay
Design in all cases: key: below the threshold = too weak to quantify, mostly under pKd 3.1 to 4
Conditions in all cases: plain residues with an end cap or a label only (N-terminal biotin on a linker: ado-ado)
LRRC7, Q96NW7 = target: T1, LRRC7, Q96NW7
SNTG2, Q9NY99 = target: T2, SNTG2, Q9NY99
NHERF2_2, Q15599 = target: NHERF2_2, Q15599
SNX27, Q96L92 = target: SNX27, Q96L92
DLG5_1, Q8TDM6 = target: DLG5_1, Q8TDM6
IL16_4, Q14005 = target: IL16_4, Q14005
MAGI1_2, Q96QZ7 = target: MAGI1_2, Q96QZ7
SYNJ2BP, P57105 = target: T3, SYNJ2BP, P57105
PARD3B_1, Q8TEW8 = target: T4, PARD3B_1, Q8TEW8
GRASP, Q7Z6J2 = target: GRASP, Q7Z6J2
NOS1, P29475 = target: NOS1, P29475
DLG3_3, Q92796 = target: T5, DLG3_3, Q92796
PARD3_3, Q8TEW0 = target: PARD3_3, Q8TEW0
LIN7B, Q9HAP6 = target: T6, LIN7B, Q9HAP6
NHERF4_1, Q86UT5-2 = target: NHERF4_1, Q86UT5-2
RADIL, Q96JH8 = target: T7, RADIL, Q96JH8
MAST1, Q9Y2H9 = target: MAST1, Q9Y2H9
TJP2_1, Q9UDY2 = target: TJP2_1, Q9UDY2
MPDZ_10, O75970 = target: T8, MPDZ_10, O75970
Inadl_2, Q8NI35 = target: Inadl_2, Q8NI35
DLG1_3, Q12959 = target: DLG1_3, Q12959
APBA3_1, O96018 = target: T9, APBA3_1, O96018
MPP6, Q9NZW5 = target: T10, MPP6, Q9NZW5
DLG4_3, P78352 = target: DLG4_3, P78352
AHNAK1, Q09666 = target: AHNAK1, Q09666
FRMPD3, Q5JV73 = target: FRMPD3, Q5JV73
Inadl_9, Q8NI35 = target: Inadl_9, Q8NI35
Inadl_6, Q8NI35 = target: Inadl_6, Q8NI35
Chain of Inadl_6, Q8NI35 (Q8NI35 1058-1167): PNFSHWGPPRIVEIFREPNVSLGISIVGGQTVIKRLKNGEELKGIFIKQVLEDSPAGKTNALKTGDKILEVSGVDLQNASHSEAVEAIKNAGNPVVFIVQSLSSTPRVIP

Chain of PARD3_3, Q8TEW0 (Q8TEW0 582-685): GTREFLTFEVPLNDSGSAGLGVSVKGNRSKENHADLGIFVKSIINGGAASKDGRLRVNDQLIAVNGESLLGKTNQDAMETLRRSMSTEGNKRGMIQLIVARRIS
Chain of MAGI1_2, Q96QZ7 (Q96QZ7 456-580): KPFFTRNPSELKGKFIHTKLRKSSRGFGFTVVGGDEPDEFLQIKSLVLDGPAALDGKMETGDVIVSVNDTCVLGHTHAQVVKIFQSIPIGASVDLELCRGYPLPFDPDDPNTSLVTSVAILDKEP
Chain of GRASP, Q7Z6J2 (Q7Z6J2 96-193): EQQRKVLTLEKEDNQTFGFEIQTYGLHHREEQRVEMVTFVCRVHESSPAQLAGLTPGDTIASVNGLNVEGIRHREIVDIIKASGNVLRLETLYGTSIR
Chain of DLG4_3, P78352 (P78352 306-403): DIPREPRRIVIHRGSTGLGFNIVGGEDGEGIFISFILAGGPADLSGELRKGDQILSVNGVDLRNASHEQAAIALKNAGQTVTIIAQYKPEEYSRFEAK
Chain of MAST1, Q9Y2H9 (Q9Y2H9 962-1065): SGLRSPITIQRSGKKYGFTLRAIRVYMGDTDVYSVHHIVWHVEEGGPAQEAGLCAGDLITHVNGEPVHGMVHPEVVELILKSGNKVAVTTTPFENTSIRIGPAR
Chain of DLG1_3, Q12959 (Q12959 457-571): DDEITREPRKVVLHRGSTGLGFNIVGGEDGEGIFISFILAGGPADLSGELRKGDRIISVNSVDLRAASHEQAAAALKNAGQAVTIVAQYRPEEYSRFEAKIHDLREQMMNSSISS
Chain of Inadl_2, Q8NI35 (Q8NI35 238-335): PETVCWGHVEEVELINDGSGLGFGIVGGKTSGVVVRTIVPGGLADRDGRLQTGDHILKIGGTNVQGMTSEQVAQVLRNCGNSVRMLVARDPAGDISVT
Chain of DLG5_1, Q8TDM6 (Q8TDM6 617-713): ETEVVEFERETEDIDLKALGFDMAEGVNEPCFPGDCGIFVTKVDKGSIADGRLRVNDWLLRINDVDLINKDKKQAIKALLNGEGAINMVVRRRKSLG
Chain of AHNAK1, Q09666 (Q09666 4-100): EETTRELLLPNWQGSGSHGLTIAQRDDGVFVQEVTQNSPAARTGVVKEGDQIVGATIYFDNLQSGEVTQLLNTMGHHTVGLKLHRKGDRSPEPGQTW
Chain of NHERF4_1, Q86UT5-2 (Q86UT5 other isoform, or with tags, fused parts or gaps): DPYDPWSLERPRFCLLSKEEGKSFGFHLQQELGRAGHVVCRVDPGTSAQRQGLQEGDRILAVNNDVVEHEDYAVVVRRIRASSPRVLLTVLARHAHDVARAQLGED
Chain of NOS1, P29475 (P29475 9-101): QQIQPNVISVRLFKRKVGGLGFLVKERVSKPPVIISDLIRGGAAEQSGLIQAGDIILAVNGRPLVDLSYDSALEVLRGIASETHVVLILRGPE
Chain of TJP2_1, Q9UDY2 (Q9UDY2 24-128): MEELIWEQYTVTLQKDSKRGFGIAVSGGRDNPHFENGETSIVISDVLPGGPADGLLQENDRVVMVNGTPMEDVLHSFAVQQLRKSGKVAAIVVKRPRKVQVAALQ
Chain of Inadl_9, Q8NI35 (Q8NI35 1530-1615): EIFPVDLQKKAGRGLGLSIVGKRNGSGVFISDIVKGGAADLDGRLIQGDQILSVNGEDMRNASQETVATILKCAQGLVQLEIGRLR
Chain of FRMPD3, Q5JV73 (Q5JV73 12-100): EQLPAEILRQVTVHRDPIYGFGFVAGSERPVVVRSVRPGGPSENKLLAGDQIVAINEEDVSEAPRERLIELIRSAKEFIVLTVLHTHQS
Chain of IL16_4, Q14005 (Q14005 1229-1329): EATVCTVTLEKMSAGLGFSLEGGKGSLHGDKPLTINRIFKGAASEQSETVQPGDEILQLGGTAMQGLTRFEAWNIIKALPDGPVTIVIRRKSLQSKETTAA
Chain of NHERF2_2, Q15599 (Q15599 142-238): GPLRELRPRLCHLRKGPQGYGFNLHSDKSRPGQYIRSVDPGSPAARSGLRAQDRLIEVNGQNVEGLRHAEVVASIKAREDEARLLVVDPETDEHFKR

Row | Binder | pKd (LRRC7, Q96NW7) | pKd (SNTG2, Q9NY99) | pKd (NHERF2_2, Q15599) | pKd (SNX27, Q96L92) | pKd (DLG5_1, Q8TDM6) | pKd (IL16_4, Q14005) | pKd (MAGI1_2, Q96QZ7) | pKd (SYNJ2BP, P57105) | pKd (PARD3B_1, Q8TEW8) | pKd (GRASP, Q7Z6J2) | pKd (NOS1, P29475) | pKd (DLG3_3, Q92796) | pKd (PARD3_3, Q8TEW0) | pKd (LIN7B, Q9HAP6) | pKd (NHERF4_1, Q86UT5-2) | pKd (RADIL, Q96JH8) | pKd (MAST1, Q9Y2H9) | pKd (TJP2_1, Q9UDY2) | pKd (MPDZ_10, O75970) | pKd (Inadl_2, Q8NI35) | further results
1 | LESTTVGTSV [KARS1, Q15046] | below the threshold | below the threshold | below the threshold | 4.45 | below the threshold | below the threshold | below the threshold | 5.44 | below the threshold | 3.95 | 3.86 | 3.6 | below the threshold | 3.79 | below the threshold | below the threshold | 4.53 | below the threshold | 3.72 | below the threshold | pKd (DLG1_3, Q12959): 3.78; pKd (APBA3_1, O96018): below the threshold; pKd (MPP6, Q9NZW5): below the threshold; pKd (DLG4_3, P78352): 3.58; pKd (AHNAK1, Q09666): below the threshold; pKd (FRMPD3, Q5JV73): below the threshold; pKd (Inadl_9, Q8NI35): 3.67; pKd (Inadl_6, Q8NI35): below the threshold
2 | VKRNSKETVV [MARCHF3, Q86UD3] | 3.79 | 4.54 | below the threshold | 5.28 | below the threshold | below the threshold | 4.6 | 4.76 | below the threshold | below the threshold | 4.03 | 4.7 | below the threshold | 3.86 | below the threshold | 4.04 | below the threshold | 3.8 | below the threshold | below the threshold | pKd (DLG1_3, Q12959): 4.32; pKd (APBA3_1, O96018): below the threshold; pKd (MPP6, Q9NZW5): below the threshold; pKd (DLG4_3, P78352): 4.94; pKd (AHNAK1, Q09666): below the threshold; pKd (FRMPD3, Q5JV73): below the threshold; pKd (Inadl_9, Q8NI35): below the threshold; pKd (Inadl_6, Q8NI35): below the threshold
3 | ILRKSTTTTV [PRR16, Q569H4] | below the threshold | below the threshold | below the threshold | 5.15 | below the threshold | 3.54 | 4.76 | 4.2 | below the threshold | 4.41 | below the threshold | 3.97 | below the threshold | below the threshold | below the threshold | 3.64 | 4.29 | 3.83 | below the threshold | below the threshold | pKd (DLG1_3, Q12959): 3.63; pKd (APBA3_1, O96018): below the threshold; pKd (MPP6, Q9NZW5): below the threshold; pKd (DLG4_3, P78352): 4.12; pKd (AHNAK1, Q09666): below the threshold; pKd (FRMPD3, Q5JV73): below the threshold; pKd (Inadl_9, Q8NI35): below the threshold; pKd (Inadl_6, Q8NI35): below the threshold
4 | NIAESLESLV [PTPRZ1, P23471] | 3.76 | 4.34 | below the threshold | 5.09 | below the threshold | below the threshold | 3.81 | 4.83 | below the threshold | 3.74 | 3.92 | below the threshold | 4.18 | below the threshold | 3.7 | 4.3 | below the threshold | below the threshold | below the threshold | below the threshold | pKd (DLG1_3, Q12959): below the threshold; pKd (APBA3_1, O96018): below the threshold; pKd (MPP6, Q9NZW5): below the threshold; pKd (DLG4_3, P78352): below the threshold; pKd (AHNAK1, Q09666): below the threshold; pKd (FRMPD3, Q5JV73): below the threshold; pKd (Inadl_9, Q8NI35): 3.76; pKd (Inadl_6, Q8NI35): 4
